Experimental data: CN114133451A (HANGZHOU MEDICAL COLLEGE, dated 2022)

Target: T1, 重组弓形虫毒力因子ROP18 (Toxoplasma gondii, UniProt Q2PAY2 1-554)
T1 construct: also called 弓形虫棒状体蛋白18; rhoptry protein 18; not shown: vector-derived tag of pET28a (fusion protein purified on Ni-NTA)
T1 sequence (looked up): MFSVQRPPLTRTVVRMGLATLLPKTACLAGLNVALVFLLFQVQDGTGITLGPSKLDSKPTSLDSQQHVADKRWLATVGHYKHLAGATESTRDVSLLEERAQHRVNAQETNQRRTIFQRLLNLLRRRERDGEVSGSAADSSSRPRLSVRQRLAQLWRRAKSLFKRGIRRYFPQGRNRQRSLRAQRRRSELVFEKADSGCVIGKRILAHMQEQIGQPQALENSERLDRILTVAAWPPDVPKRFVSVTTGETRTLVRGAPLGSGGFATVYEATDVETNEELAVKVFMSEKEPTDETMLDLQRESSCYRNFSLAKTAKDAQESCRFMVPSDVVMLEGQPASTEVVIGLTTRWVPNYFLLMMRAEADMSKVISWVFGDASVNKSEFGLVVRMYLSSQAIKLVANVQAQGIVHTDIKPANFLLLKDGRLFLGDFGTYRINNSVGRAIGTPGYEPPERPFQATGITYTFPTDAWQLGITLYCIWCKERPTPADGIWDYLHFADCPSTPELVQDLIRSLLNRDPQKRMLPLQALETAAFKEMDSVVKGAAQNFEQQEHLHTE
Assay: SPR, Biacore T100, 1:1 binding fit

B1: 弓形虫毒力因子ROP18纳米抗体22号克隆株 (VHH)
VHH: QVQLVESGGGSVQAGGSLRLSCVASRYTYTYSTYCLGWFRQAPGKEREEIAIIDSDGGARYADSVKGRFTISRDNAKSTLYLHMNSLKPDDTAMYSCAAGRPAPSLGYKCMYNSRHKGTLVTVSS
notes: also called 毒力因子纳米抗体; pMECS-ROP18-22; not shown: tag from the pMECS vector (purified on a nickel column, detected with anti-His a)
In the case of B1, the Kd is reported as 2.72 nM.
